In paper PMC10543557 one finds Kd data, which are given here for one substance.

One may read the Kd as the equilibrium constant for the complex coming apart.

The target in this test is FAM-labeled recombinant full-length SARS-CoV-2 Nsp1 (SARS-CoV-2-Nsp1_C-51-V) (SARS-CoV-2) (UniProt P0DTD1). The test is described as follows: fluorescence polarisation. Background: Fluorescence polarisation rises when a labelled molecule tumbles more slowly, as on binding a larger partner.

“40S ribosomal subunit purified from rabbit reticulocyte lysate (from UniProt G1TNM3 1-243; G1SWM1 1-292) (complex)”: the Kd was found to be 30 nM.
